Results taken from PMC7360964, “Auto‐inhibition of Mif2/CENP‐C ensures centromere‐dependent kinetochore assembly in budding yeast” (The EMBO Journal, 2020).
Positions count from the first letter of the chain named. Names and notes keep the numbering of the source. Where no end group is shown, it is not given here.

B1: Mif2^1-41 peptide (peptide, UniProt P35201 1-41, looked up)
peptide: MDYMKLGLKSRKTGIDVKQDIPKDEYSMENIDDFFKDDETS
notes: Mif2, S. cerevisiae, residues 1-41, unlabeled, used in ITC; also called Mif2-N
B2: FITC-Mif2^1-41 (peptide, UniProt P35201 1-41, looked up)
peptide: B1 peptide
modifications: also: FITC label (position not given here)
notes: Mif2, S. cerevisiae, residues 1-41; also called Mif2-N (FITC-labeled N-terminal Mif2 peptide)
B3: Mtw1‐5A: Mtw1 D25A D81A K82A E84A Y86A, interface I (protein, UniProt P39731 1-289, looked up, variant D25A D81A K82A E84A Y86A)
Kinetochore-associated …: MSAPTMRSTSILTEHLGYPPISLVADIINAVNEIMYKCTAAMEKYLLSKSKIGEEDYGEEIKSGVAKLESLLENSVDKNFAALALAVLRNVLRIPEEYLDANVFRLENQKDLVIVDENELKKSEEKLREKVNDVELAFKKNEMLLKRVTKVKRLLFTIRGFKQKLNELLKCKDDVQLQKILESLKPIDDTMTLLTDSLRKLYVDSESTSSTEEVEALLQRLKTNGKQNNKDFRTRYIDIRTNNVLRKLGLLGDKEDEKQSAKPDARTQAGDIVSIDIEEPQLDLLDDVL
B4: Mtw1-8A: Mtw1 D25A N32A Y36A E73A D81A K82A E84A Y86A, interface I+II (protein, UniProt P39731 1-289, looked up, variant D25A N32A Y36A E73A D81A K82A E84A Y86A)
Kinetochore-associated …: B3 Kinetochore-associated … with N32A, Y36A, E73A
B5: Mtw1‐3A: Mtw1 E73A N32A Y36A, interface II (protein, UniProt P39731 1-289, looked up, variant E73A N32A Y36A)
Kinetochore-associated …: B3 Kinetochore-associated … with A25D, N32A, Y36A, E73A, A81D, A82K, A84E, A86Y
B6: Ame1-N peptide (aa 1-20) (peptide, UniProt P38313 1-20, looked up)
peptide: MDRDTKLAFRLRGSHSRRTD
notes: Ame1 (CENP-U homolog), S. cerevisiae, residues 1-20; also called Ame1^1-20; Ame1_1-20

What was measured:
[1] = biological target: T1, Mtw1-Nnf1 heterodimer (MN) (S. cerevisiae, UniProt P39731 1-289; P47149 1-201); experiment: ITC; peptide (Mif2 1-41 250 μM or Ame1 1-20 800 μM) titrated into 25 μM MN; 30 mM Hepes pH 7.5, 150 mM NaCl, 1 mM TCEP, 25°C; one set of binding sites; average of 3 or 4 experiments; details: both partners purified
T1 construct: Mtw1, S. cerevisiae; Nnf1, S. cerevisiae; also called Mtw1/Nnf1 dimer; MN complex; source: E. coli BL21 (DE3), purified (HisTrap, Q flow-through, SEC); not shown: His6, N-terminal, kept
T1 sequence (looked up) 1: B3 Kinetochore-associated … with A25D, A81D, A82K, A84E, A86Y
T1 sequence (looked up) 2: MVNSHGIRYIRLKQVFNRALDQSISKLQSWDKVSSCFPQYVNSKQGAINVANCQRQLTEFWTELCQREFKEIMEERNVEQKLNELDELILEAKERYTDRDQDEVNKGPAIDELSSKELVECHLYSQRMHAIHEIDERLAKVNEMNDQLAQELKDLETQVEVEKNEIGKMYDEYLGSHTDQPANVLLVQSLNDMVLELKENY

[2] = biological target: T1, Mtw1-Nnf1 heterodimer (MN); experiment: fluorescence polarisation; 0.1 μM FITC-Mif2 1-41, MN added from 0 to 4 μM; 30 mM Hepes pH 7.5, 150 mM NaCl, 1 mM TCEP, 23°C; one set of binding sites; triplicates; details: both partners purified
Ame1‐Okp1 (AO) complex = experiment: Analytical SEC of Mtw1c wild-type and mutants with Ame1-Okp1 (AO); format: binding, budding yeast; details: 10 μM each
Procedure: Figure 3 Analysis of Mtw1 interface mutants in vivo • Structure of the Mtw1c head I bound to Mif2 and list of key residues constituting interface I (Mif2 binding) and interface II (putative Ame1 binding) from Dimitrova et al. • Analysis of these Mtw1 mutants in vivo using the anchor‐away technique. Mtw1‐FRB strains containing RPL13‐FKBP12 for cytoplasmic anchoring and additionally harboring the indicated rescue alleles were plated in serial dilution on YEPD or YEPD + rapamycin plates incubated at 30°C. • Tetrad analysis of Mtw1‐wt or mutants. […]
The GST pulldown experiment was performed using BSA‐preblocked GSH Sepharose beads. […] Beads were washed twice in pulldown buffer, before Laemmli sample buffer was added to the beads (GST pulldown) or proteins were eluted in pulldown buffer supplemented with 1 mg/ml Flag peptide before addition of Laemmli sample buffer (Flag pulldown) and samples were analyzed on a Coomassie Brilliant Blue‐stained SDS–PAGE gel or Western blotting. […] Elution of proteins was monitored at 280 nm. 100 μl fractions were collected and analyzed by SDS–PAGE and Coomassie Brilliant Blue staining or Western blotting. […] After several washes with lysis buffer, proteins were eluted with 0.2 mg/ml 3xFlag peptide in lysis buffer, and fractions were analyzed by Western blotting. […]

[3] = system: hemizygous Mtw1 deletion strain; experiment: Tetrad analysis, Mtw1 alleles; format: cell-based, budding yeast; details: Mtw1 rescue construct only source of Mtw1
Procedure: Figure 3 Analysis of Mtw1 interface mutants in vivo • Structure of the Mtw1c head I bound to Mif2 and list of key residues constituting interface I (Mif2 binding) and interface II (putative Ame1 binding) from Dimitrova et al. • Analysis of these Mtw1 mutants in vivo using the anchor‐away technique. Mtw1‐FRB strains containing RPL13‐FKBP12 for cytoplasmic anchoring and additionally harboring the indicated rescue alleles were plated in serial dilution on YEPD or YEPD + rapamycin plates incubated at 30°C. • Tetrad analysis of Mtw1‐wt or mutants. Surviving spores in which the Mtw1‐wt or mutant rescue construct was the only source of Mtw1 are indicated in pink circles. • Western blotting confirming the expression of Mtw1‐6x‐Flag wt or mutant proteins in the Mtw1‐FRB strain background. • Analytical SEC runs and accompanying SDS–PAGE of Mtw1c‐wt or Mtw1c‐5A mutant (blue), AO (gray), or a stoichiometric combination of both complexes (green) at 10 μM each. Boxes indicate corresponding fractions in left and right panels.
The inability of these alleles to support growth was not due to lack of protein expression, although the steady‐state level was reduced compared to the wild‐type as shown by Western blotting (Fig 3D). We additionally confirmed that Mtw1 interface I mutants indeed confer a lethal phenotype by introducing the respective mutations into a hemizygous Mtw1 deletion strain and performing tetrad dissection. […] The more severe phenotype of Mtw1‐3A in the FRB system compared to tetrad dissection might be due to the additional mutations in the complex genetic background of the anchor‐away strain, which might make it more sensitive to the Mtw1‐3A mutation.
Serial fourfold dilutions of overnight cultures were prepared on 96‐well plates in minimal medium starting from OD600 of 0.6. The dilutions were spotted on YPD medium with and without rapamycin or on YP‐glucose and YP‐galactose and grown at 30°C for 3 days. […]

Molecule | Kd [1] | interaction of Mtw1c with AO, SEC (Ame1‐Okp1 (AO) complex) | viability of haploid spores [3] | also measured
B1 | 1170 nM |  |  | 
B2 |  |  |  | Kd [2]: 380 nM
B3 |  | no longer able to interact efficiently with AO | inviable | 
B4 |  |  | inviable | 
B5 |  | abolish AOc binding | viable, albeit slow‐growing | 
B6 | 12500 nM |  |  | 
